Here are results for six molecules from patent US20170240632A1, “COMPOSITIONS AND METHODS FOR IDENTIFYING AND TREATING CACHEXIA OR PRE-CACHEXIA” (THE BROAD INSTITUTE INC., priority 2014, published 2017).

Entries after “also recorded” stand apart in the source; their conditions may differ.

The experiment concerns Primary human myoblast differentiated into terminal myotubes. Put plainly: Cachexia induction by recombinant S100/HMGB1 proteins, myosin HC in-cell Western. It counts as cell-based. The conditions noted are these: recombinant ligands in Hanks Balance Salt Solution applied 1:2 v:v to fresh maintenance media each day for 3 days. As for the experimental part:
FIG. 1 is a graph showing the differential cachexia-inducing activity of r-S100 faimily proteins. All rpooteins are tested in HBSS buffer. Myosin HC is measured in an in-cell Western assay.
FIGS. 1-4 illustrate the effect of various proteins of the S100 family, as well as HMGB1, as cachexia inducers when conmpared with cachexia-inducing media. Primary human myoblast were plated and differentiated into terminal myotubes as previously described. Recombinant ligands were prepared at the same dose curve in Hanks Balance Salt Solution (buffer) and applied 1:2 v:v to fresh maintenance media each day for 3 days. Cells were assessed for myosin HC content by in-cell Western staining as previously described.

B1: S100A8: recombinant S100 family protein, RAGE ligand (protein, listed as Homo sapiens)
chain: MLTELEKALNSIIDVYHKYSLIKGNFHAVYRDDLKKLLETECPQYIRKKGADVWFKELDINTDGAVNFQEFLILVIKMGVAAHKKSHEESHKE
For B1, the “induction of the cachectic phenotype (myosin HC content)” value (shortened to “induction of the cachectic phenotype”) is on record as “key effector molecules in inducing precachexia and/or cachexia”. Besides, where the note is “listed as A8”, the “induction of the cachectic phenotype” value is “inducers of the cachectic phenotype”.

B2: Calprotectin: homodimers, heterodimers and heterotetramers of S100A8 and S100A9 (protein, UniProt P05109 1-93; P06702 1-114, looked up)
Protein S100-A8: B1 chain
Protein S100-A9: MTCKMSQLERNIETIINTFHQYSVKLGHPDTLNQGEFKELVRKDLQNFLKKENKNEKVIEHIMEDLDTNADKQLSFEEFIMLMARLTWASHEKMHEGDEGPGHHHKPGLGEGTP
As to B2, the “induction of the cachectic phenotype” value is on record as “key effector molecules in inducing precachexia and/or cachexia”.

B3: HMGB1: high mobility group box 1, RAGE ligand (protein, UniProt P09429 1-215, looked up)
High mobility group protein B1: MGKGDPKKPRGKMSSYAFFVQTCREEHKKKHPDASVNFSEFSKKCSERWKTMSAKEKGKFEDMAKADKARYEREMKTYIPPKGETKKKFKDPNAPKRPPSAFFLFCSEYRPKIKGEHPGLSIGDVAKKLGEMWNNTAADDKQPYEKKAAKLKEKYEKDIAAYRAKGKPDAAKKGVVKAEKSKKKKEEEEDEEDEEDEEEEEDEEDEDEEEDDDDE
Consider B3, for which the “induction of the cachectic phenotype” value is reported as “do not induce precachexia and/or cachexia; also recorded: not cachexogenic in muscle”.

B4: S100A9: recombinant S100 family protein, RAGE ligand (protein, listed as Homo sapiens)
chain: B2 Protein S100-A9
On to B4, for which the “induction of the cachectic phenotype” value is recorded as “key effector molecules in inducing precachexia and/or cachexia”. For the setting “listed as A9”, the “induction of the cachectic phenotype” value is reported as “inducers of the cachectic phenotype”.

B5: S100A7: recombinant S100 family protein, RAGE ligand (protein, listed as Homo sapiens)
chain: MSNTQAERSIIGMIDMFHKYTRRDDKIEKPSLLTMMKENFPNFLSACDKKGTNYLADVFEKKDKNEDKKIDFSEFLSLLGDIATDYHKQSHGAAPCSGGSQ
For B5, the “induction of the cachectic phenotype” value was “key effector molecules in inducing precachexia and/or cachexia”. Where the note is “listed as S100 A7”, the “induction of the cachectic phenotype” value was “inducers of the cachectic phenotype”.

B6: S100B: recombinant S100 family protein, RAGE ligand (protein, listed as Homo sapiens)
chain: MSELEKAMVALIDVFHQYSGREGDKHKLKKSELKELINNELSHFLEEIKEQEVVDKVMETLDNDGDGECDFQEFMAFVAMVTTACHEFFEHE
Turning to B6, the “induction of the cachectic phenotype” value is given as “little or no activity; also recorded: do not induce precachexia and/or cachexia”.
